{"source": "paper PMC9482650", "about": "“Quantitative fragmentomics allow affinity mapping of interactomes” (Nature Communications, 2022)", "data": [{"molecular_target": "AHNAK1, Q09666", "sequence (Q09666 4-100)": "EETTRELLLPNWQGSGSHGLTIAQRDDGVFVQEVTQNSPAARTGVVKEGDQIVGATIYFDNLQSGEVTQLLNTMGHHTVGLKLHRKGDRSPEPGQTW", "test": "holdup assay", "set-up": "key: below the threshold = too weak to quantify, mostly under pKd 3.1 to 4", "details": "modified: phospho on T at position -2 from the C-terminal residue", "values": [{"binder": "SRSRRRETAL", "note": "[HPV33-E6_-2P, P06427]", "pKd": "below the threshold"}]}, {"molecular_target": "T1, APBA2_1, Q99767", "T1 sequence (Q99767 563-664, limits assumed, looked up)": "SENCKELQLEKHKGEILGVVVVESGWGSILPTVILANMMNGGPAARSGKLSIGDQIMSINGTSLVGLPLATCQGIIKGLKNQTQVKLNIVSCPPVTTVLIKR", "test": "holdup assay", "set-up": "key: below the threshold = too weak to quantify, mostly under pKd 3.1 to 4", "details": "modified: phospho on T at position -2 from the C-terminal residue", "values": [{"binder": "SRSRRRETAL", "note": "[HPV33-E6_-2P, P06427]", "pKd": "below the threshold"}]}, {"molecular_target": "T2, APBA2_2, Q99767", "T2 sequence (Q99767 654-744, limits assumed, looked up)": "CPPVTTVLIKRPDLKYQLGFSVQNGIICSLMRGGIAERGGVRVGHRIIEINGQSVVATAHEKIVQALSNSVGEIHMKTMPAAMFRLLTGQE", "test": "holdup assay", "set-up": "key: below the threshold = too weak to quantify, mostly under pKd 3.1 to 4", "details": "modified: phospho on T at position -2 from the C-terminal residue", "values": [{"binder": "SRSRRRETAL", "note": "[HPV33-E6_-2P, P06427]", "pKd": "below the threshold"}]}, {"molecular_target": "ARHGEF12, Q9NZN5-2", "sequence (Q9NZN5 other isoform, or with tags, fused parts or gaps)": "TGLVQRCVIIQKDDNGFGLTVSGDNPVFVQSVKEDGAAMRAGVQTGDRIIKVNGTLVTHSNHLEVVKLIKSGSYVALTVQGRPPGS", "test": "holdup assay", "set-up": "key: below the threshold = too weak to quantify, mostly under pKd 3.1 to 4", "details": "modified: phospho on T at position -2 from the C-terminal residue", "values": [{"binder": "SRSRRRETAL", "note": "[HPV33-E6_-2P, P06427]", "pKd": "below the threshold"}]}, {"molecular_target": "T3, CARD11, Q9BXL7", "T3 sequence (Q9BXL7 662-765, limits assumed, looked up)": "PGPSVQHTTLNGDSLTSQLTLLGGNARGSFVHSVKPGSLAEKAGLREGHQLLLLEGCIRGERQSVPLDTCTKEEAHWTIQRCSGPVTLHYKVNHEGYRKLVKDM", "test": "holdup assay", "set-up": "key: below the threshold = too weak to quantify, mostly under pKd 3.1 to 4", "details": "modified: phospho on T at position -2 from the C-terminal residue", "values": [{"binder": "SRSRRRETAL", "note": "[HPV33-E6_-2P, P06427]", "pKd": "below the threshold"}]}, {"molecular_target": "T4, DVL3, Q92997", "T4 sequence (Q92997 244-331, limits assumed, looked up)": "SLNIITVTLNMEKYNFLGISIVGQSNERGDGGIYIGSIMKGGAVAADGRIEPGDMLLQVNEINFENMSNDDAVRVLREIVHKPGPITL", "test": "holdup assay", "set-up": "key: below the threshold = too weak to quantify, mostly under pKd 3.1 to 4", "details": "modified: phospho on T at position -2 from the C-terminal residue", "values": [{"binder": "SRSRRRETAL", "note": "[HPV33-E6_-2P, P06427]", "pKd": "below the threshold"}]}, {"molecular_target": "T5, FRMPD1, Q5SYB0", "T5 sequence (Q5SYB0 52-145, limits assumed, looked up)": "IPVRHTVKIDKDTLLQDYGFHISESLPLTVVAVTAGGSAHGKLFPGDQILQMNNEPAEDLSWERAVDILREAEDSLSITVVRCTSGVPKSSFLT", "test": "holdup assay", "set-up": "key: below the threshold = too weak to quantify, mostly under pKd 3.1 to 4", "details": "modified: phospho on T at position -2 from the C-terminal residue", "values": [{"binder": "SRSRRRETAL", "note": "[HPV33-E6_-2P, P06427]", "pKd": "below the threshold"}]}, {"molecular_target": "T6, GRIP1_7, Q9Y3R0", "T6 sequence (Q9Y3R0 999-1096, limits assumed, looked up)": "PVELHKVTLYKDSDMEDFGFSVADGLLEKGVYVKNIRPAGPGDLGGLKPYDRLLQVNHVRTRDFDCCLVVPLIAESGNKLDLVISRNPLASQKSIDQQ", "test": "holdup assay", "set-up": "key: below the threshold = too weak to quantify, mostly under pKd 3.1 to 4", "details": "modified: phospho on T at position -2 from the C-terminal residue", "values": [{"binder": "SRSRRRETAL", "note": "[HPV33-E6_-2P, P06427]", "pKd": "below the threshold"}]}, {"molecular_target": "GRIP2_3, Q9C0E4", "sequence (Q9C0E4 238-339)": "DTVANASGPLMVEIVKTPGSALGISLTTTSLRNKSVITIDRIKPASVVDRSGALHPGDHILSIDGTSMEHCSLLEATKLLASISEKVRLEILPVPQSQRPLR", "test": "holdup assay", "set-up": "key: below the threshold = too weak to quantify, mostly under pKd 3.1 to 4", "details": "modified: phospho on T at position -2 from the C-terminal residue", "values": [{"binder": "SRSRRRETAL", "note": "[HPV33-E6_-2P, P06427]", "pKd": "below the threshold"}]}, {"molecular_target": "T7, HTRA4, P83105", "T7 sequence (P83105 378-476, limits assumed, looked up)": "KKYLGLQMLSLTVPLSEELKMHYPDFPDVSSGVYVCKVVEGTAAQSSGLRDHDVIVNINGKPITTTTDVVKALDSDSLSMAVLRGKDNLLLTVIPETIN", "test": "holdup assay", "set-up": "key: below the threshold = too weak to quantify, mostly under pKd 3.1 to 4", "details": "modified: phospho on T at position -2 from the C-terminal residue", "values": [{"binder": "SRSRRRETAL", "note": "[HPV33-E6_-2P, P06427]", "pKd": "below the threshold"}]}, {"molecular_target": "Inadl_3, Q8NI35", "sequence (Q8NI35 359-469)": "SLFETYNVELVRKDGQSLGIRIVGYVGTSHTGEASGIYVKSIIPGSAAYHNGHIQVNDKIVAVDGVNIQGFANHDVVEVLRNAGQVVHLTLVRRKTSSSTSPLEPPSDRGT", "test": "holdup assay", "set-up": "key: below the threshold = too weak to quantify, mostly under pKd 3.1 to 4", "details": "modified: phospho on T at position -2 from the C-terminal residue", "values": [{"binder": "SRSRRRETAL", "note": "[HPV33-E6_-2P, P06427]", "pKd": "below the threshold"}]}, {"molecular_target": "LIMK2, P53671", "sequence (P53671 143-248)": "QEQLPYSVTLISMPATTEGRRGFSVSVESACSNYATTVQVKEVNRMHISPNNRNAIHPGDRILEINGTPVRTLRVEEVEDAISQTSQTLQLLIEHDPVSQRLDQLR", "test": "holdup assay", "set-up": "key: below the threshold = too weak to quantify, mostly under pKd 3.1 to 4", "details": "modified: phospho on T at position -2 from the C-terminal residue", "values": [{"binder": "SRSRRRETAL", "note": "[HPV33-E6_-2P, P06427]", "pKd": "below the threshold"}]}, {"molecular_target": "T8, LNX2_2, Q8N448", "T8 sequence (Q8N448 334-432, limits assumed, looked up)": "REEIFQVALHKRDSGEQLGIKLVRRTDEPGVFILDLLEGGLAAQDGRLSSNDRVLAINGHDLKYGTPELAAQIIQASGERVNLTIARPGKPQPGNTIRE", "test": "holdup assay", "set-up": "key: below the threshold = too weak to quantify, mostly under pKd 3.1 to 4", "details": "modified: phospho on T at position -2 from the C-terminal residue", "values": [{"binder": "SRSRRRETAL", "note": "[HPV33-E6_-2P, P06427]", "pKd": "below the threshold"}]}, {"molecular_target": "MAST2, Q6P0Q8", "sequence (Q6P0Q8 1099-1202)": "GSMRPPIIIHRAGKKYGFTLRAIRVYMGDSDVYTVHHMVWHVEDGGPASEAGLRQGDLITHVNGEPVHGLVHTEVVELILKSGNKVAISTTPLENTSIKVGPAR", "test": "holdup assay", "set-up": "key: below the threshold = too weak to quantify, mostly under pKd 3.1 to 4", "details": "modified: phospho on T at position -2 from the C-terminal residue", "values": [{"binder": "SRSRRRETAL", "note": "[HPV33-E6_-2P, P06427]", "pKd": 3.62}]}, {"molecular_target": "T9, MPDZ_12, O75970", "T9 sequence (O75970 1857-1958, limits assumed, looked up)": "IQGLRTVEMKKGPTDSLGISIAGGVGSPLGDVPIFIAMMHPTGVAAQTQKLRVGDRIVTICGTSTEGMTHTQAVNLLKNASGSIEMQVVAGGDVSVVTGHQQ", "test": "holdup assay", "set-up": "key: below the threshold = too weak to quantify, mostly under pKd 3.1 to 4", "details": "modified: phospho on T at position -2 from the C-terminal residue", "values": [{"binder": "SRSRRRETAL", "note": "[HPV33-E6_-2P, P06427]", "pKd": "below the threshold"}]}, {"molecular_target": "T10, MPP2, Q14168", "T10 sequence (Q14168 180-250, limits assumed, looked up)": "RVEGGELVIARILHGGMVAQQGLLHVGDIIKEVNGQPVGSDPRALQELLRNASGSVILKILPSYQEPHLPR", "test": "holdup assay", "set-up": "key: below the threshold = too weak to quantify, mostly under pKd 3.1 to 4", "details": "modified: phospho on T at position -2 from the C-terminal residue", "values": [{"binder": "SRSRRRETAL", "note": "[HPV33-E6_-2P, P06427]", "pKd": "below the threshold"}]}, {"molecular_target": "T11, MPP7, Q5T2T1", "T11 sequence (Q5T2T1 134-230, limits assumed, looked up)": "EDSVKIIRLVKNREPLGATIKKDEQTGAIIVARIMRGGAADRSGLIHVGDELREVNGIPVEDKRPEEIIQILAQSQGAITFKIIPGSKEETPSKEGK", "test": "holdup assay", "set-up": "key: below the threshold = too weak to quantify, mostly under pKd 3.1 to 4", "details": "modified: phospho on T at position -2 from the C-terminal residue", "values": [{"binder": "SRSRRRETAL", "note": "[HPV33-E6_-2P, P06427]", "pKd": "below the threshold"}]}, {"molecular_target": "T12, NHERF3_3, Q5T2W1", "T12 sequence (Q5T2W1 238-333, limits assumed, looked up)": "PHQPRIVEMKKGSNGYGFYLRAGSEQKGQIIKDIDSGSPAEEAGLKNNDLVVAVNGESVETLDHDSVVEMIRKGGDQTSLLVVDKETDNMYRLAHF", "test": "holdup assay", "set-up": "key: below the threshold = too weak to quantify, mostly under pKd 3.1 to 4", "details": "modified: phospho on T at position -2 from the C-terminal residue", "values": [{"binder": "SRSRRRETAL", "note": "[HPV33-E6_-2P, P06427]", "pKd": "below the threshold"}]}, {"molecular_target": "T13, PDZD7_3, Q9H5P4", "T13 sequence (Q9H5P4 857-944, limits assumed, looked up)": "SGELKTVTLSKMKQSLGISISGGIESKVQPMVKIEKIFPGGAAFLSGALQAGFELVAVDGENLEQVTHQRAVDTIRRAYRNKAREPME", "test": "holdup assay", "set-up": "key: below the threshold = too weak to quantify, mostly under pKd 3.1 to 4", "details": "modified: phospho on T at position -2 from the C-terminal residue", "values": [{"binder": "SRSRRRETAL", "note": "[HPV33-E6_-2P, P06427]", "pKd": 3.74}]}, {"molecular_target": "SCRIB_1, Q14160", "sequence (Q14160 718-814)": "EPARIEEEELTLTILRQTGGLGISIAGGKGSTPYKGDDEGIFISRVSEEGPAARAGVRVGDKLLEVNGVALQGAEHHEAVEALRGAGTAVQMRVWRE", "test": "holdup assay", "set-up": "key: below the threshold = too weak to quantify, mostly under pKd 3.1 to 4", "details": "modified: phospho on T at position -2 from the C-terminal residue", "values": [{"binder": "SRSRRRETAL", "note": "[HPV33-E6_-2P, P06427]", "pKd": "below the threshold"}]}, {"molecular_target": "T14, SNTG1, Q9NSN8", "T14 sequence (Q9NSN8 52-150, limits assumed, looked up)": "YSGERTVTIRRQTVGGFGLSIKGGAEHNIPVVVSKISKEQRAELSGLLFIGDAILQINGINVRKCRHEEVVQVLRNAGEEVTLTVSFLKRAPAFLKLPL", "test": "holdup assay", "set-up": "key: below the threshold = too weak to quantify, mostly under pKd 3.1 to 4", "details": "modified: phospho on T at position -2 from the C-terminal residue", "values": [{"binder": "SRSRRRETAL", "note": "[HPV33-E6_-2P, P06427]", "pKd": "below the threshold"}]}, {"molecular_target": "T15, TIAM2, Q8IVF5", "T15 sequence (Q8IVF5 885-986, limits assumed, looked up)": "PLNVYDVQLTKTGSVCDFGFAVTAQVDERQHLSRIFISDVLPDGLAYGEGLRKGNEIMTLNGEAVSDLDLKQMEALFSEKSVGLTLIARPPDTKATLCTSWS", "test": "holdup assay", "set-up": "key: below the threshold = too weak to quantify, mostly under pKd 3.1 to 4", "details": "modified: phospho on T at position -2 from the C-terminal residue", "values": [{"binder": "SRSRRRETAL", "note": "[HPV33-E6_-2P, P06427]", "pKd": "below the threshold"}]}, {"molecular_target": "TJP1_2, Q07157", "sequence (Q07157 181-274)": "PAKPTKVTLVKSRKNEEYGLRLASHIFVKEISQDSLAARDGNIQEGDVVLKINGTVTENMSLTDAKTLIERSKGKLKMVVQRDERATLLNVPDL", "test": "holdup assay", "set-up": "key: below the threshold = too weak to quantify, mostly under pKd 3.1 to 4", "details": "modified: phospho on T at position -2 from the C-terminal residue", "values": [{"binder": "SRSRRRETAL", "note": "[HPV33-E6_-2P, P06427]", "pKd": "below the threshold"}]}]}
